For test [1], the target named is T1, GST-GluR2 C-terminus (GST-R2C) (UniProt P19491 834-883).
T1 chain (looked up): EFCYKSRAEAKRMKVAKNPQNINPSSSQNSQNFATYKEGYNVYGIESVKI
The test can be described thus: pull-down.

In test [2] the target is GST-PICK1 (protein interacting with C-kinase 1) (UniProt Q9EP80 1-416). The experiment in a line: pull-down.
Sequence of GST-PICK1 (protein interacting with C-kinase 1) (Q9EP80 whole entry): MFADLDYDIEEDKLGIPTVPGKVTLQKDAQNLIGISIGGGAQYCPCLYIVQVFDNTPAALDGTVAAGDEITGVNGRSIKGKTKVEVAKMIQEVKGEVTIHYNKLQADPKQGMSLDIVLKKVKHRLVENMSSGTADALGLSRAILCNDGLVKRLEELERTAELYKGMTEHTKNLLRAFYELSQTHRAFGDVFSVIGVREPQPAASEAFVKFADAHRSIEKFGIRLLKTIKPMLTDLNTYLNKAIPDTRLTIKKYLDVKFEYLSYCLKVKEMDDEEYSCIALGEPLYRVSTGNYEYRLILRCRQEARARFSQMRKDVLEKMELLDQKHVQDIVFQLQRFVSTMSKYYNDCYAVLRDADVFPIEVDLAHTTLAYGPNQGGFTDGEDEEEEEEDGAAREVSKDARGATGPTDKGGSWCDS

B1: his6D142A NSF (enzyme, UniProt P18708 1-744, looked up)
chain: MAGRSMQAARCPTDELSLSNCAVVSEKDYQSGQHVIVRTSPNHKYIFTLRTHPSVVPGSVAFSLPQRKWAGLSIGQEIEVALYSFDKAKQCIGTMTIEIDFLQKKNIDSNPYDTDKMAAEFIQQFNNQAFSVGQQLVFSFNAKLFGLLVKDIEAMDPSILKGEPASGKRQKIEVGLVVGNSQVAFEKAENSSLNLIGKAKTKENRQSIINPDWNFEKMGIGGLDKEFSDIFRRAFASRVFPPEIVEQMGCKHVKGILLYGPPGCGKTLLARQIGKMLNAREPKVVNGPEILNKYVGESEANIRKLFADAEEEQRRLGANSGLHIIIFDEIDAICKQRGSMAGSTGVHDTVVNQLLSKIDGVEQLNNILVIGMTNRPDLIDEALLRPGRLEVKMEIGLPDEKGRLQILHIHTARMRGHQLLSADVDIKELAVETKNFSGAELEGLVRAAQSTAMNRHIKASTKVEVDMEKAESLQVTRGDFLASLENDIKPAFGTNQEDYASYIMNGIIKWGDPVTRVLDDGELLVQQTKNSDRTPLVSVLLEGPPHSGKTALAAKIAEESNFPFIKICSPDKMIGFSETAKCQAMKKIFDDAYKSQLSCVVVDDIERLLDYVPIGPRFSNLVLQALLVLLKKAPPQGRKLLIIGTTSRKDVLQEMEMLNAFSTTIHVPNIATGEQLLEALELLGNFKDKERTTIAQQVKGKKVWIGIKKLLMLIEMSLQMDPEYRVRKFLALLREEGASPLDFD
For the molecule B1, the “binding at 15 μmol/L free Ca2+ relative to zero free Ca2+” value in test [1] stood at 85%.

B2: his6β-SNAP (β soluble NSF attachment protein) (natural protein, UniProt P81126 1-298, looked up)
chain: MDNAGKEREAVQLMAEAEKRVKASHSFLRGLFGGNTRIEEACEMYTRAANMFKMAKNWSAAGNAFCQAAKLHMQLQSKHDSATSFVDAGNAYKKADPQEAINCLNAAIDIYTDMGRFTIAAKHHITIAEIYETELVDIEKAIAHYEQSADYYKGEESNSSANKCLLKVAAYAAQLEQYQKAIEIFEQIGANTMDNPLLKYSAKDYFFKAALCHFIVDELNAKLALEKYEEMFPAFTDSRECKLLKKLLEAHEEQNSEAYTEAVKEFDSISRLDQWLTTMLLRIKKSIQGDGEGDGDLK
Consider B2, for which, in test [2], the “fold increase in binding at 15 μmol/L free Ca2+ compared with zero free Ca2+” value is ~7 fold.

Source of the values: paper PMC1976250 (Journal of neurochemistry, 2007).
